Literature values, collected in article PMC2830912.

Target: Pol III alpha subunit (Escherichia coli) (UniProt P10443)
Sequence (P10443 whole entry): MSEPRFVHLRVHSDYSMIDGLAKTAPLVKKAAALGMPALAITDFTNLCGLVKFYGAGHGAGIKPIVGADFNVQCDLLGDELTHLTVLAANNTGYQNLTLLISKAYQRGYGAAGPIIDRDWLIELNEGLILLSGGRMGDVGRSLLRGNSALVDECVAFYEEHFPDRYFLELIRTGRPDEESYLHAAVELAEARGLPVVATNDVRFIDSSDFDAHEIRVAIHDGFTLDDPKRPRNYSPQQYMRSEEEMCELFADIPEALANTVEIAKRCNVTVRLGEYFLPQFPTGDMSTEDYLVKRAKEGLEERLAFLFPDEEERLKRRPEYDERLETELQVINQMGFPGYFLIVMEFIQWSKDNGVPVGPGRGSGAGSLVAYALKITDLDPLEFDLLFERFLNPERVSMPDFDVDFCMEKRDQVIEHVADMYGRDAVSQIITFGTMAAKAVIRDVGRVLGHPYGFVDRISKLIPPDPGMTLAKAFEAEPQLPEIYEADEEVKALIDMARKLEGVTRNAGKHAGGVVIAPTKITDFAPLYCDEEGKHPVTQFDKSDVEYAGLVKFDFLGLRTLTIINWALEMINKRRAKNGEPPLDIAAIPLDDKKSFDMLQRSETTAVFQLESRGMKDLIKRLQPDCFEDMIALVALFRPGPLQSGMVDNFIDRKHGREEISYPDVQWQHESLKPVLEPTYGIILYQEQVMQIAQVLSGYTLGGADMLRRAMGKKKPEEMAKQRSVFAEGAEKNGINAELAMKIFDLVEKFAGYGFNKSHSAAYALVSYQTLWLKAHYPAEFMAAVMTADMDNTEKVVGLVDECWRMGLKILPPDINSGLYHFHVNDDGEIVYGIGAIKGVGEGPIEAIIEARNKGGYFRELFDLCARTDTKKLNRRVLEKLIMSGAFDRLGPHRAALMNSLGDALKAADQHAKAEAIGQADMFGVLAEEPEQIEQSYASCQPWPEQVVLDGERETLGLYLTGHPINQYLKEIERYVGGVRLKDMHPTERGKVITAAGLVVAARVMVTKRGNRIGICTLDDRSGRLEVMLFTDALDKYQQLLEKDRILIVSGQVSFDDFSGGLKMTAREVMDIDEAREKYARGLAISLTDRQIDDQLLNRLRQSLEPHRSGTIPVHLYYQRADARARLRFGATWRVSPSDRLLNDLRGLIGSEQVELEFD

DnaX tau subunit, sequence (P06710 2-643): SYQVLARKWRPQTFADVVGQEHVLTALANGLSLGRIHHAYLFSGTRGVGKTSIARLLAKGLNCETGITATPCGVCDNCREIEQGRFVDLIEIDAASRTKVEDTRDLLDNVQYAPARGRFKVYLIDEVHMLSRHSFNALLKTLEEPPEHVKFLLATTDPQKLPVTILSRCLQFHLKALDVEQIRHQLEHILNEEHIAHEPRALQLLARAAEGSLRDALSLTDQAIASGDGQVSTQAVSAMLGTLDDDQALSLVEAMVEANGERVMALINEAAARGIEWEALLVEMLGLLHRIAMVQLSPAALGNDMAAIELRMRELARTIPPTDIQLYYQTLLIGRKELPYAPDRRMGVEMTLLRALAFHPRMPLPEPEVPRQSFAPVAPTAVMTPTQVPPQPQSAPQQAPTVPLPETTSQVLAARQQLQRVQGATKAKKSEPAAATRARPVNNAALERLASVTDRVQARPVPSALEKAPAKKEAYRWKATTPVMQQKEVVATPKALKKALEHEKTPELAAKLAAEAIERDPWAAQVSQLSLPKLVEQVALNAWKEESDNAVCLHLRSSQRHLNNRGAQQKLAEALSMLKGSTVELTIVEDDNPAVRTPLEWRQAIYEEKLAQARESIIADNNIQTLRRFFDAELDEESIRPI

Kd: 0.07 nM
Substance: DnaX tau subunit (from UniProt P06710)
